US20190264171A1, “DIFFERENTIATION OF PLURIPOTENT STEM CELLS INTO CORNEAL CELLS” (TAMPEREEN YLIOPISTO, priority 2016, published 2019)

B1: BMP-4: bone morphogenetic protein 4 (Peprotech) (protein, UniProt P12644 293-408, looked up)
Bone morphogenetic protein 4: SPKHHSQRARKKNKNCRRHSLYVDFSDVGWNDWIVAPPGYQAFYCHGDCPFPLADHLNSTNHAIVQTLVNSVNSSIPKACCVPTELSAISMLYLDEYDKVVLKNYQEMVVEGCGCR

Test system: human pluripotent stem cells cultured in feeder free conditions
Test: Corneal epithelial differentiation of pluripotent stem cells cultured in feeder free conditions
Type: cell-based
Protocol: Feeder-free culture, xeno-free culture of human pluripotent stem cells was based on the use of recombinant Laminin-521 (Biolamina, Sweden) extracellular matrix protein coating and defined, xeno-free culture medium, the Essential 8™ Flex Medium (Life Technologies). The pluripotent stem cells were transferred to the culture system from the standard feeder cell based culture system by manually cutting undifferentiated colony parts with scalpel and plating to ln-521 coated (0.75-1.8 μg/cm^2 overnight at +4° C.) culture plates. The cells are allowed to grow near confluency with medium changed 3-4 times a week, and passaged with TrypLE™ Select Enzyme as single cells twice a week.
Differentiation of pluripotent stem cells cultured on feeder cells to corneal epithelial cells with the induction method disclosed in EP 2828380 comprising TGF-beta inhibitor, Wnt inhibitor and a fibroblast growth factor (10 μM SB-505124+10 μM IWP-2, 50 ng/ml bFGF), followed by differentiation in Cnt-30 epithelial medium on collagen IV matrix, yielded at best >90% p63 positive cells with correct corneal epithelial morphology.
However, prominent neuronal differentiation and cell detachment was recurrently observed as the induction method disclosed in EP 2828380 was used.
The human pluripotent stem cells cultured in the feeder free culture system as described above were differentiated to corneal epithelial cells by detaching the pluripotent cells with TrypLE™ Select Enzyme for 4 min at +37° C. On Day 0, embryoid bodies were created with overnight incubation with 5 μM Blebbistatin (Sigma, B05601) or 10 μM Y-27632 dihydrochloride (R&D Systems, 1254) in a xeno-free culture medium containing: Knockout-Dulbecco's Modified Eagle's Medium (ko-DMEM) supplemented with 15% Xeno-Free Knockout Serum Replacement (XF-ko-SR), 2 mM GlutaMax (all from ThermoFisher Scienfic), 1% MEM Eagle Non-Essential Amino acid solution (NEAA, Cambrex Bio Science), 50 U/ml penicillin/streptomycin (Cambrex Bio Science), 0.1 mM ß-mercaptoethanol (ThermoFisher Scienfic). […]

Molecule | cell survival on omitting the substance from the first phase induction medium (IWP-2 omitted from induction medium, collagen IV + laminin-521 matrix) | corneal epithelial cell morphology and marker expression (25 ng/ml BMP-4 for 2 to 3 days after initial induction) | epithelial morphology and marker expression after additional induction (BMP-4 induction (induction phase 3) after SB-505124/bFGF induction, total of 20-30 days of differentiation)
Cc1ccc2nc(NC(=O)CSc3nc4c(c(=O)n3-c3ccccc3)SCC4)sc2c1 [IWP-2, reference compound] | notably enhanced cell survival | – | –
B1 | – | best result of most cells with correct corneal epithelial cell morphology and marker expression | best result with most cells having correct epithelial morphology and marker expression
